Assay results reported in PMC8769338 (PLoS Pathogens, 2022).
“And” between values parts separate entries of the source, which are not always exact repeats. Equal entries are not always repeated.

B1: JPU-A5 (VHH)
VHH: QVQLVETGGGLVQAGGSLRLSCTASGADFSFYAMGWYRQTPGNSRELVAVMNLNGVISYGDSARGRFDISRDGTKNIVFLQMNSLKPEDTGVYYCNGMRLYTRGSVRHPESWGQGIQVTVSS
notes: form of the ELISAs; source: pET-32 vector, thioredoxin fusion, purified
B2: JPU-C10 (VHH)
VHH: QLQLVESGGGLVQPGGSLRLSCAASGNIFSIYYMGWYRQAPGKQREMVAIINSNGITNYGDFVKGRFTISRDNAENSAYLQMNNLTPEDTAVYYCNAGKLRRTTGWGLDDYWGQGTQVTVSS
notes: as for B1
B3: JPU-G11 (VHH)
VHH: QLQLVETGGGLVQPGGSLRLACVASESVFEMYTVAWYRQAPGKQRELVAGITDEGRTNYADFVKGRFTISRDNSKKTVHLQMDNLNPEDTAVYYCKLEHDLGYYDYWGQGTQVTVSS
notes: as for B1
B4: BLc-B10 (VHH)
VHH: QLQLVESGGGMVQPGGSLRLSCAASGFTFSTYDMSWVRQAPGKGPEWVSIINAGGGSTYYAASVKGRFAISRDNAKNTLYLQMNNLKPEDTALYYCARVASYYCRGYVCSPPEFDYWGQGTQVTVSS
notes: source: pET-32 vector, thioredoxin fusion, purified
B5: JLO-G7 (VHH)
VHH: QVQLVESGGGLVQAGGSLRLSCAASGFPFGSYYMSWVRQAPGKGPEWVSDISNGGIITRYSDSVKGRFTISRDNAKNILYLQMNSLKPEDTALYFCATGTGRDWSREYRGQGTQVTVSS
notes: as for B4
B6: JND-B4 (VHH)
VHH: QVQLVETGGGLVQPGGSLRLSCVASGFTLDSYAIGWFRQAPGKEREGVSCMSSGDGSTYYTNSVKGRFTISRDNAQNTVYLQMNSLKPEDTAVYYCAADGFDYCSAYVPGRGMNYSGKGTLVTVSS
notes: as for B4
B7: ciA-D1 (VHH)
VHH: QVQLVESGGGLVQPGGSLRLSCATSGFTLEYYAIGWFRQAPGKGREGVACMNSSGGGTNYADSVKGRFTISRDNAKKMVYLQMNSLKSEDTAVYYCVVDDFRCGSRWAAYLRSSWGQGTQVTVSS
notes: as for B4
B8: JND-E5 (VHH)
VHH: QVQLVESGGLVQPGGSLRLSCAASGFTLDYYGIGWVRQAPGKEREEVSCITSGGLTNYPDSVKGRFTISRDNAKNTVYLQMNSLKPEDTAVYYCAIDRVGVCAMEDFGSWGQGTQVTVSS
notes: as for B4
B9: JND-E9 (VHH)
VHH: QVQLVETGGGLVQAGDSLRLSCAASGRTFNYYAMAWFRQAPGKEREFVAFINWSGDSTYYAGSVKGRFTISRDNAKNTVYLQMNNLKPEDTAVYSCAAEFGTFSYLQGDDYSYWGQGTQVTVSS
notes: as for B4

Legend:
Details in all cases: both partners purified
[1] = target: LC/A2, strep-tag fusion protein (Clostridium botulinum, BoNT/A2 (strain …, UniProt Q45894, strain)); test: ELISA
[2] = target: LC/A1 (light chain protease domain of BoNT/A1), as used in the ELISAs of Table 1 (Clostridium botulinum, BoNT/A1, UniProt P0DPI0); test: ELISA
[3] = target: T1, LC/B1 (light chain protease domain of BoNT/B1), as used in the ELISAs of Table 2 (Clostridium botulinum, BoNT/B1, UniProt P10844); test: ELISA
[4] = target: T1, LC/B1 (light chain protease domain of …); test: ELISA; dilution ELISA of VHH on LC/B coated to Nunc plastic

Row | Binder | EC50 [3] | also measured
1 | B1 |  | binding result [1]: binds
2 | B2 |  | binding result [1]: binds
3 | B3 |  | EC50 [2]: 1 nM and 0.5 nM
4 | B4 | 5 nM and 10 nM | EC50 [4]: 0.3 nM
5 | B5 | 0.5 nM | 
6 | B6 | 0.8 nM and 0.5 nM | 
7 | B7 |  | EC50 [2]: 1 nM and 0.4 nM
8 | B8 | 5 nM and 2 nM | 
9 | B9 | 1 nM and 0.5 nM | 
